# Legend:
# [1] = tested on: Histone H3-H4, Cy5-labelled ((only implied by the reviewer comments)); experiment: single-molecule DNA curtain; conditions: DNA curtain: 5 nM Abo1 and 12.5 nM Cy5-H3-H4 pre-incubated on ice 15 min with 1 mM nucleotide, then 15 min with DNA without flow, YOYO-1 washed out in assay …
# [2] = molecular target: Cy3-labeled histone H3–H4 (X. laevis) (UniProt P84233); experiment: fluorescence polarisation; fluorescence anisotropy; 0–1 μM Abo1 added to 20 nM Cy3-labeled H3–H4; 30 mM HEPES pH 7.5, 200 mM NaCl, 1 % glycerol, 2 mM MgCl2, 0.01 % NP-40; room temperature; affinity not significantly changed with nucleotide
# [3] = molecular target: the molecule itself; experiment: SEC; Superose6 gel filtration of purified Abo1 in buffer with 2 mM EDTA, 2 mM MgCl2 or 2 mM MgATP
# [4] = molecular target: the molecule itself; experiment: cryo-EM structure; Abo1 in 20 mM HEPES pH7.5, 250 mM NaCl, 1 mM DTT, 0.025 % octyl β-D-glucoside with 2 mM MgCl2 (apo), 2 mM MgADP or 2 mM MgATP (Walker B mutant)
molecule,measurement,setting,value
lambda phage DNA (single-tethered DNA curtain),binding signal (% DNA with bound H3-H4),[1],5.24
same,binding signal (% DNA with bound H3-H4),"[1]; loading by wild-type Abo1 (5 nM), 1 mM ATP",85
same,binding signal (% DNA with bound H3-H4),"[1]; wild-type Abo1, no ATP",< 10
"Abo1 (aa243–1190), wild type (enzyme, Schizosaccharomyces pombe, UniProt O14114 243-1190, looked up, Abo1, Schizosaccharomyces pombe ATAD2 homolog, aa243–1190 (acidic N-terminus truncated; two AAA+ domains, bromodomain and C-terminal domain); Gene synthesized (Genscript), pFastBac-HTB; also called recombinant Abo1; wild-type Abo1; source: Sf9 (baculovirus), purified (Ni-NTA, TEV cleavage, HiTrapQ); not shown: 6xHis, N-terminal, cleaved) GRIREKSDLADSDPLGVDSSLSFESVGGLDNYINQLKEMVMLPLLYPEIFQRFNMQPPRGVLFHGPPGTGKTLMARALAAACSSENKKVSFYMRKGADCLSKWVGEAERQLRLLFEEAKSTQPSIIFFDEIDGLAPVRSSKQEQIHASIVSTLLALMDGMESRGQVIIIGATNRPDAVDPALRRPGRFDREFYFPLPDRDARKKIIEIHTRNWDPPVPEWLCSMLAEKSKGYGGADLRALCTEAALNSIKRTYPQLYRSTKRLQIDPKTIKVKVKDFVMSMKRMIPSSERSSISPSKPLSPELKPLLNEAFQDIEKTLQKLMPVASKLNPLEEVMYDDPKENDFEYQQRLETFETLRIYKPRFLICGRKGLGQTALGPAILQQYEGVHVQSFDMSTLLQDSTQSIETSIIHLFLEVRRHTPSIIYIPDIDNWLNVLPLTAITTFSSMLERLDFSDQILFLALSSSPLSELHPQLREWFSSKQSVYSLQYPTRDSIIAFFQPILELIKASPTELPGGIPRKRRVLPELPLAPDPPPFTSQKITLKQTKQADMRLLNKLKIKLNALLGSLRARYRKFKKPLIDFNDIYCVDPETGHSYRSREECHYEFVDDVVKQIGSDQKFSMMSLEEIEKRTWDNCYCTPKQFVHDIKLILRDALQLEDSETIKRAQEMYANVLLGVEDMEDDQFSQRCERMALREAERRKLRHGKLQKHLDETKADMQFTSEKPSVDESITEVDDAIKDGPPVLAETLTNSLMEDVGPENVDMDIEDNEIFTNQSTMSVPSMLVENEESPKPDEYIDQKDKVQSPLLNGKSPVGVPSEAALRVSTDVSTNISSNGRADIPVDTLITSPADVPNNAPTDAHNITSADGHIENIEQEVVFPDLVFDEDRLTPLKQLLIDSTTGFTVDQLLHLHSFLYQIIWNTKSEWNRNSVVDECERAVKEFMINALQ",Kd,[2],23 nM
same,stoichiometry N,[3],6
"Abo1 Walker B mutant (E372Q), aa243–1190 (enzyme, Schizosaccharomyces pombe, UniProt O14114 243-1190, looked up, Abo1, Schizosaccharomyces pombe, aa243–1190, Walker B mutation E372Q; also called ATP-Abo1 Walker B mutant; ATP-Abo1; source: Sf9 (baculovirus), purified (Ni-NTA, TEV cleavage, HiTrapQ); not shown: 6xHis, N-terminal, cleaved) GRIREKSDLADSDPLGVDSSLSFESVGGLDNYINQLKEMVMLPLLYPEIFQRFNMQPPRGVLFHGPPGTGKTLMARALAAACSSENKKVSFYMRKGADCLSKWVGEAERQLRLLFEEAKSTQPSIIFFDQIDGLAPVRSSKQEQIHASIVSTLLALMDGMESRGQVIIIGATNRPDAVDPALRRPGRFDREFYFPLPDRDARKKIIEIHTRNWDPPVPEWLCSMLAEKSKGYGGADLRALCTEAALNSIKRTYPQLYRSTKRLQIDPKTIKVKVKDFVMSMKRMIPSSERSSISPSKPLSPELKPLLNEAFQDIEKTLQKLMPVASKLNPLEEVMYDDPKENDFEYQQRLETFETLRIYKPRFLICGRKGLGQTALGPAILQQYEGVHVQSFDMSTLLQDSTQSIETSIIHLFLEVRRHTPSIIYIPDIDNWLNVLPLTAITTFSSMLERLDFSDQILFLALSSSPLSELHPQLREWFSSKQSVYSLQYPTRDSIIAFFQPILELIKASPTELPGGIPRKRRVLPELPLAPDPPPFTSQKITLKQTKQADMRLLNKLKIKLNALLGSLRARYRKFKKPLIDFNDIYCVDPETGHSYRSREECHYEFVDDVVKQIGSDQKFSMMSLEEIEKRTWDNCYCTPKQFVHDIKLILRDALQLEDSETIKRAQEMYANVLLGVEDMEDDQFSQRCERMALREAERRKLRHGKLQKHLDETKADMQFTSEKPSVDESITEVDDAIKDGPPVLAETLTNSLMEDVGPENVDMDIEDNEIFTNQSTMSVPSMLVENEESPKPDEYIDQKDKVQSPLLNGKSPVGVPSEAALRVSTDVSTNISSNGRADIPVDTLITSPADVPNNAPTDAHNITSADGHIENIEQEVVFPDLVFDEDRLTPLKQLLIDSTTGFTVDQLLHLHSFLYQIIWNTKSEWNRNSVVDECERAVKEFMINALQ",binding result,[4],binds

# — PMC6917787, “Structural basis of nucleosome assembly by the Abo1 AAA+ ATPase histone chaperone” (Nature Communications, 2019)
